T1: TNFR1 (Homo sapiens, UniProt P19438)
T1 chain: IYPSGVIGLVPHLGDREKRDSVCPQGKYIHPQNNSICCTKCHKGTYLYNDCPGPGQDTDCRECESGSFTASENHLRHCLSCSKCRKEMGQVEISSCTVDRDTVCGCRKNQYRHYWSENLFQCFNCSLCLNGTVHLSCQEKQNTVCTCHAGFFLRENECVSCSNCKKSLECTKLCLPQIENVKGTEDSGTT


Biological target: T1, TNFR1
Assay: yeast display SC50

Binder	apparent Kd (screen) [nM]
F20L (designed binder) MTLQELLREEALRRAEAEALRYALELLAEKFPEQKEYLLDLAEEIESQIRSLSGVDVEDVRKFLDKEWAWVKELLAEHPAELAEVEAARAARLAELRAEVEAKVAA	0.593
L41M (designed binder) MTLQELLREEALRRAEAEAFRYALELLAEKFPEQKEYLLDMAEEIESQIRSLSGVDVEDVRKFLDKEWAWVKELLAEHPAELAEVEAARAARLAELRAEVEAKVAA	0.718
R21F (designed binder) MTLQELLREEALRRAEAEAFFYALELLAEKFPEQKEYLLDLAEEIESQIRSLSGVDVEDVRKFLDKEWAWVKELLAEHPAELAEVEAARAARLAELRAEVEAKVAA	0.49
E16D (designed binder) MTLQELLREEALRRADAEAFRYALELLAEKFPEQKEYLLDLAEEIESQIRSLSGVDVEDVRKFLDKEWAWVKELLAEHPAELAEVEAARAARLAELRAEVEAKVAA	1.05
L12I (designed binder) MTLQELLREEAIRRAEAEAFRYALELLAEKFPEQKEYLLDLAEEIESQIRSLSGVDVEDVRKFLDKEWAWVKELLAEHPAELAEVEAARAARLAELRAEVEAKVAA	0.539
R50D (designed binder) MTLQELLREEALRRAEAEAFRYALELLAEKFPEQKEYLLDLAEEIESQIDSLSGVDVEDVRKFLDKEWAWVKELLAEHPAELAEVEAARAARLAELRAEVEAKVAA	0.49
A15R (designed binder) MTLQELLREEALRRREAEAFRYALELLAEKFPEQKEYLLDLAEEIESQIRSLSGVDVEDVRKFLDKEWAWVKELLAEHPAELAEVEAARAARLAELRAEVEAKVAA	0.718
R13N (designed binder) MTLQELLREEALNRAEAEAFRYALELLAEKFPEQKEYLLDLAEEIESQIRSLSGVDVEDVRKFLDKEWAWVKELLAEHPAELAEVEAARAARLAELRAEVEAKVAA	1.16
S47N (designed binder) MTLQELLREEALRRAEAEAFRYALELLAEKFPEQKEYLLDLAEEIENQIRSLSGVDVEDVRKFLDKEWAWVKELLAEHPAELAEVEAARAARLAELRAEVEAKVAA	0.49
L3T (designed binder) MTTQELLREEALRRAEAEAFRYALELLAEKFPEQKEYLLDLAEEIESQIRSLSGVDVEDVRKFLDKEWAWVKELLAEHPAELAEVEAARAARLAELRAEVEAKVAA	4.83
I49W (designed binder) MTLQELLREEALRRAEAEAFRYALELLAEKFPEQKEYLLDLAEEIESQWRSLSGVDVEDVRKFLDKEWAWVKELLAEHPAELAEVEAARAARLAELRAEVEAKVAA	2.48
L6W (designed binder) MTLQEWLREEALRRAEAEAFRYALELLAEKFPEQKEYLLDLAEEIESQIRSLSGVDVEDVRKFLDKEWAWVKELLAEHPAELAEVEAARAARLAELRAEVEAKVAA	3.99
M1C (designed binder) CTLQELLREEALRRAEAEAFRYALELLAEKFPEQKEYLLDLAEEIESQIRSLSGVDVEDVRKFLDKEWAWVKELLAEHPAELAEVEAARAARLAELRAEVEAKVAA	0.718

The remaining lines, values ahead:

apparent Kd (screen) [nM]	Binder
0.956	E86V (designed binder) MTLQELLREEALRRAEAEAFRYALELLAEKFPEQKEYLLDLAEEIESQIRSLSGVDVEDVRKFLDKEWAWVKELLAEHPAELAEVVAARAARLAELRAEVEAKVAA
0.539	E77W (designed binder) MTLQELLREEALRRAEAEAFRYALELLAEKFPEQKEYLLDLAEEIESQIRSLSGVDVEDVRKFLDKEWAWVKELLAWHPAELAEVEAARAARLAELRAEVEAKVAA
0.539	L96D (designed binder) MTLQELLREEALRRAEAEAFRYALELLAEKFPEQKEYLLDLAEEIESQIRSLSGVDVEDVRKFLDKEWAWVKELLAEHPAELAEVEAARAARLAEDRAEVEAKVAA
2.73	G54Y (designed binder) MTLQELLREEALRRAEAEAFRYALELLAEKFPEQKEYLLDLAEEIESQIRSLSYVDVEDVRKFLDKEWAWVKELLAEHPAELAEVEAARAARLAELRAEVEAKVAA
0.869	A105T (designed binder) MTLQELLREEALRRAEAEAFRYALELLAEKFPEQKEYLLDLAEEIESQIRSLSGVDVEDVRKFLDKEWAWVKELLAEHPAELAEVEAARAARLAELRAEVEAKVTA
0.539	K103S (designed binder) MTLQELLREEALRRAEAEAFRYALELLAEKFPEQKEYLLDLAEEIESQIRSLSGVDVEDVRKFLDKEWAWVKELLAEHPAELAEVEAARAARLAELRAEVEASVAA
0.593	W70F (designed binder) MTLQELLREEALRRAEAEAFRYALELLAEKFPEQKEYLLDLAEEIESQIRSLSGVDVEDVRKFLDKEWAFVKELLAEHPAELAEVEAARAARLAELRAEVEAKVAA
0.539	D65C (designed binder) MTLQELLREEALRRAEAEAFRYALELLAEKFPEQKEYLLDLAEEIESQIRSLSGVDVEDVRKFLCKEWAWVKELLAEHPAELAEVEAARAARLAELRAEVEAKVAA
0.593	V100P (designed binder) MTLQELLREEALRRAEAEAFRYALELLAEKFPEQKEYLLDLAEEIESQIRSLSGVDVEDVRKFLDKEWAWVKELLAEHPAELAEVEAARAARLAELRAEPEAKVAA
0.593	V71M (designed binder) MTLQELLREEALRRAEAEAFRYALELLAEKFPEQKEYLLDLAEEIESQIRSLSGVDVEDVRKFLDKEWAWMKELLAEHPAELAEVEAARAARLAELRAEVEAKVAA
0.718	V104R (designed binder) MTLQELLREEALRRAEAEAFRYALELLAEKFPEQKEYLLDLAEEIESQIRSLSGVDVEDVRKFLDKEWAWVKELLAEHPAELAEVEAARAARLAELRAEVEAKRAA
0.49	V57Y (designed binder) MTLQELLREEALRRAEAEAFRYALELLAEKFPEQKEYLLDLAEEIESQIRSLSGVDYEDVRKFLDKEWAWVKELLAEHPAELAEVEAARAARLAELRAEVEAKVAA
0.539	K72I (designed binder) MTLQELLREEALRRAEAEAFRYALELLAEKFPEQKEYLLDLAEEIESQIRSLSGVDVEDVRKFLDKEWAWVIELLAEHPAELAEVEAARAARLAELRAEVEAKVAA

Reference: article PMC12416549 (2024)
